Measurements as given in patent US20090214574A1 (AFFIMED, published 2009).

B1: affinity matured anti-CD16A scFv 3-LB6 (scFv)
scFv: EVQLVQSGAEVKKPGESLKVSCKASGYTFTSYYMHWVRQAPGQGLEWMGIINPSGGSTSYAQKFQGRVTMTRDTSTSTVYMELSSLRSEDTAVYYCARGSAYYYDFADYWGQGTLVTVSSGSASAPTLKLEEGEFSEARVQAVLTQPPSVSVAPGQTARIPCEGNNIGSKNVHWYRQKPGQVPVLVMYDDSDRPSGIPERFSGSNSGNTATLTISGTQAMDEADYYCQVWDNYSVLFGGGTKLTVLGQPKAAPSVTLFPPSAAAGSEQKLISEEDLNSHHHHHH
notes: IMAC-purified from pSKK2
B2: affinity matured anti-CD16A scFv 4-LS14 (scFv)
scFv: EVQLVQSGAEVKKPGESLKVSCKASGYTFTSYYMHWVRQAPGQGLEWMGIINPSGGSTSYAQKFQGRVTMTRDTSTSTVYMELSSLRSEDTAVYYCARGSAYYYDFADYWGQGTLVTVSSGSASAPTLKLEEGEFSEARVSYELTQPPSVSVTPGQTATITCGANDIGKRNVHWYQQRPGQSPVLVIYQDNKRPSGIPERFSGSNSGNTATLTISGTQAMDEADYYCQVWDNYSVLFGGGTKLTVLGQPKAAPSVTLFPPSAAAGSEQKLISEEDLNSHHHHHH
notes: IMAC-purified from pSKK2
B3: affinity matured anti-CD16A scFv 3-LB3 (scFv)
scFv: EVQLVQSGAEVKKPGESLKVSCKASGYTFTSYYMHWVRQAPGQGLEWMGIINPSGGSTSYAQKFQGRVTMTRDTSTSTVYMELSSLRSEDTAVYYCARGSAYYYDFADYWGQGTLVTVSSGSASAPTLKLEEGEFSEARVSYELTQPLSESVAQGQTARITCGGNNIESRNVHWYQQKPGQAPVLVIYRDNNRPSGIPERFSGSNSGNMATLTISRAQAGDAADYYCQVWDNYTVLFGGGTKLTVLGQPKAAPSVTLFPPSAAAGSEQKLISEEDLNSHHHHHH
notes: IMAC-purified from pSKK2
B4: affinity matured anti-CD16A scFv 3-LB5 (scFv)
scFv: EVQLVQSGAEVKKPGESLKVSCKASGYTFTSYYMHWVRQAPGQGLEWMGIINPSGGSTSYAQKFQGRVTMTRDTSTSTVYMELSSLRSEDTAVYYCARGSAYYYDFADYWGQGTLVTVSSGSASAPTLKLEEGEFSEARVSYELTQPPSVAVAPGKTARITCGGNNIGSKNVHWYQQKPGQAPVLVIYRDSNRPSGIPERFSGSNSGNTATLTISRAQAGDEADFYCQVWDNYIVLFGGGTKLTVLGQPKAAPSVTLFPPSAAAGSEQKLISEEDLNSHHHHHH
notes: IMAC-purified from pSKK2; oligomeric state not analysed
B5: affinity matured anti-CD16A scFv 3-LS49 (scFv)
scFv: EVQLVQSGAEVKKPGESLKVSCKASGYTFTSYYMHWVRQAPGQGLEWMGIINPSGGSTSYAQKFQGRVTMTRDTSTSTVYMELSSLRSEDTAVYYCARGSAYYYDFADYWGQGTLVTVSSGSASAPTLKLEEGEFSEARVQPVLTQPLSVSVAPGQTARITCGGNNIGSKNVHWYQQKPGQAPVLVIYRDSSRPSGIPERLSGSNSGDTATLTISRAQAGDEADYYCQVWDDYIVVFGGGTKLTVLGQPKAAPPVTLFPPSAAAGSEQKLISEEDLNSHHHHHH
notes: IMAC-purified from pSKK2

Target: T1, human CD16A-Fc^48R/158V fusion protein (human, UniProt P08637 17-208, limits assumed)
T1 construct: Secreted soluble fusion made in HEK-293 cells; also called CD16-Fc; CD16A Fc-fusion protein; not shown: Fc portion of human IgG1
Experiment: SPR, BIAcore 2000, CD16A-Fc immobilized on CM5, 1:1 Langmuir
Protocol: (§1) The affinity constants (KD values) of the scFv were determined by SPR using the BIAcore 2000 biosensor system (Amersham-Pharmacia). The CD16A-Fc fusion protein and BSA used as a negative control were immobilized on the carboxymethyldextran-coated sensor chip CM5 using conventional NHS/EDC chemistry for the amine coupling procedure (BIAcore). Purified scFvs were diluted in HBS-EP buffer (BIAcore, Uppsala, Sweden). Binding data was generated by passing varying concentrations of the scFv antibodies (100 nM, 200 nM, 400 nM, 800 nM and 1600 nM) over the immobilized antigen. […] All SPR measurements were performed at a constant flow rate of 20 μL/min in HBS-EP buffer at 25° C. Each injected sample (100 μl) was in contact with antigen for 5 minutes. The dissociation was followed for 30 minutes. After each cycle, the surface of the sensor chip was flushed with HBS-EP buffer. Signals from the control channel coated with BSA were automatically subtracted. Kinetic constants were calculated according to the 1/1 Langmuir binding model using the BIAevaluation version 3.0 software (BIAcore).

T1 sequence (P08637 17-208 L66R/F176V limits assumed): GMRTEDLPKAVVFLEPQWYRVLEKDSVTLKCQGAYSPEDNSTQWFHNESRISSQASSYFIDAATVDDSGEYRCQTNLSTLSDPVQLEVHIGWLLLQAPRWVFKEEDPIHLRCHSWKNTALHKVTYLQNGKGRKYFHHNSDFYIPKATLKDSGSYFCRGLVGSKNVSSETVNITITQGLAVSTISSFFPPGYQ

koff [s⁻¹]	kon [M⁻¹ s⁻¹]	Binder
0.00652	54800	B1
0.00557	50900	B2
0.00297	21600	B3
0.00297	73300	B4
0.00401	29300	B5

Target: T1, human CD16A-Fc^48R/158V fusion protein
Experiment: SPR, BIAcore 2000, CD16A-Fc immobilized on CM5, koff/kon
Protocol: as §1

Kd [nM]	Binder
119	B1
109	B2
138	B3
40.5	B4
137	B5

Target: T1, human CD16A-Fc^48R/158V fusion protein
Experiment: SPR, steady state analysis (column Keq)
Protocol: as §1

Kd [nM]	Binder
106	B1

Target: T2, human CD16B (NA-2 allele) on stably transfected HEK-293 cells (293/CD16B) (human, UniProt O75015 17-200)
T2 construct: whole, on cells
Experiment: flow cytometry on 293/CD16B cells; scFv, anti-hexa His MAb 13/45/31-2, FITC goat anti-mouse IgG; MFI minus secondary reagents alone
Protocol: (§2) The mean fluorescence intensities obtained from flow cytometric analysis were corrected by subtracting the fluorescence values from cell stainings with the secondary reagents alone, and plotted in the diagram.
(§3) For flow cytometric analysis, the following cell lines were used: BW and BW/CD16A transfectants were cultured as described previously. […] The transient transfections were performed using the calcium phosphate method as described in Example 1 and were used for flow cytometric staining and analysis two days after transient transfection. Flow cytometric staining and analysis was performed as essentially described before.

T2 sequence (O75015 17-200 N65S): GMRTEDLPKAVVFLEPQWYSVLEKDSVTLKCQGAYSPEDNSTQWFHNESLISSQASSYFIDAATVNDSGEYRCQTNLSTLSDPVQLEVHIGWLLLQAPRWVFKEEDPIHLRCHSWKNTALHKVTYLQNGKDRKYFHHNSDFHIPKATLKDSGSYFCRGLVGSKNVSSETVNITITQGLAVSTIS

binding result	Binder
no binding (tested: 50 µg/mL)	B1
no binding (tested: 50 µg/mL)	B2
no binding (tested: 50 µg/mL)	B3
no binding (tested: 50 µg/mL)	B4
no binding (tested: 50 µg/mL)	B5

Target: T3, NKp46 extracellular domain fused to zeta chain, on transiently transfected HEK-293 cells (293/NKp46) (human, UniProt O76036 22-258; P20963 31-164)
T3 construct: extracellular domain;domain: transmembrane and cytoplasmic domain; On the cell surface; also called NKp46-transfectants; pcDNA3-NKp46-zeta
Experiment: flow cytometry on 293/NKp46 cells; scFv, anti-hexa His MAb 13/45/31-2, FITC goat anti-mouse IgG; MFI minus secondary reagents alone
Protocol: as §2, §3

T3 sequence (O76036 other isoform, or with tags, fused parts or gaps limits assumed): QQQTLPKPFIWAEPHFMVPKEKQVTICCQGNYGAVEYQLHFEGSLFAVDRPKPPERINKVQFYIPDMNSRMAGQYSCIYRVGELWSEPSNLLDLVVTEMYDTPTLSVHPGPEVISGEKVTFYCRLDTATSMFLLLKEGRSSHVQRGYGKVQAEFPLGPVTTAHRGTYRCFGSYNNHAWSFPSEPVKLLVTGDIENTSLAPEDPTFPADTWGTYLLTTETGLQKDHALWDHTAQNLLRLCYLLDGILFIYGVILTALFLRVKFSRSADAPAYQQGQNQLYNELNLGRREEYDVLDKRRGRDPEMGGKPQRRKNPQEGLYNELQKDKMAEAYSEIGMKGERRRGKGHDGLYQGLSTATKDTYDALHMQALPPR

binding result	Binder
no binding (tested: 50 µg/mL)	B1
no binding (tested: 50 µg/mL)	B2
no binding (tested: 50 µg/mL)	B3
no binding (tested: 50 µg/mL)	B4
no binding (tested: 50 µg/mL)	B5

Target: T4, NKp46-Fc (UniProt O76036 22-258, limits assumed)
T4 construct: Negative control protein; also called NKp46-Fc control protein; not shown: Fc part, not described
Experiment: Western blot on NKp46-Fc
Protocol: For further characterization all of the anti-CD16A scFv were tested for binding in Western Blot on recombinant CD16A-Fc and NKp46-Fc.
The proteins were transferred on a nitrocellulose membrane by electroblotting. After staining with Ponceau S, the membrane was cut into strips of 5 mm width. Each nitrocellulose strip was individually incubated with scFv (4 μg/ml) in PBS, 0.1% tween, 2% skimmed milk. Detection was carried out with the anti-Penta His HRP-conjugate (1 μg/mL) using diaminobenzidine (DAB) as a peroxidase substrate. […] As an additional positive control, a goat anti-human IgG HRP-conjugate (0.16 μg/mL) was used for detection of the Fc portion of the fusion proteins.

T4 sequence (O76036 22-258 limits assumed): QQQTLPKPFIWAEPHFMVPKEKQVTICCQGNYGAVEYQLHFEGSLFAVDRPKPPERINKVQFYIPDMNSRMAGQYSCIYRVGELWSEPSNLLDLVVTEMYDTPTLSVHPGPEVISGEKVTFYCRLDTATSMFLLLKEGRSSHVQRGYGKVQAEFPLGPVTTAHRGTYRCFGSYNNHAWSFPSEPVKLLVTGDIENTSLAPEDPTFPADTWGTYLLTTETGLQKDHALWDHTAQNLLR

binding result	Binder
no binding (tested: 4 µg/ml)	B1
no binding (tested: 4 µg/ml)	B2
no binding (tested: 4 µg/ml)	B3
no binding (tested: 4 µg/ml)	B4
no binding (tested: 4 µg/ml)	B5

Target: T5, commercially available recombinant CD16B (Allele NA-2; BSA free; RD Systems) (UniProt O75015 17-200, limits assumed)
T5 construct: also called recombinant CD16B-Fc
Experiment: ELISA on recombinant CD16B coated at 80 nM; scFv detected with anti-c-Myc-HRP (10 µg/ml)
Protocol: FIG. 3: ELISA on recombinant CD16A-Fc and CD16B. Recombinant CD16A-Fc and CD16B proteins were coated at 80 nM in 0.1 M NaHCO₃, pH 8.8. Wells were blocked with PBS, 2% skimmed milk. The binding of the scFv to the recombinant proteins and to gp34-Fc (negative control) was detected using an anti-c-Myc-HRP conjugate (10 μg/ml). […] Coated recombinant CD16B was directly detected by staining with an anti-His-HRP (1 μg/mL) and coating of the Fc-Fusion proteins was tested by an anti-human IgG-HRP conjugate (0.5 μg/mL). As HRP-substrate, 50 μL of TMB were used. After termination of the reaction with 50 μL 0.5 M H₂SO₄, absorbance was measured at 450 nm.
In order to generate further supporting data concerning the CD16A specificity of the scFvs, an ELISA was performed using the CD16A-Fc fusion protein (Example 1) and commercially available recombinant CD16B-Fc (Allele NA-2; BSA free; RD Systems). A gp34-Fc fusion protein was used as a negative control. The recombinant proteins were coated overnight at a concentration of 80 nM in 100 mM NaHCO₃ at pH 8.8.
Detection of scFv bound to the recombinant proteins was carried out by using an anti-c-myc-HRP conjugate (10 μg/ml). […] Binding to the recombinant CD16B was tested by directly staining with anti-His-HRP (1 μg/mL) and binding to the Fc-Fusion proteins was tested by an anti-human IgG-HRP conjugate (0.15 μg/mL).

T5 sequence (O75015 17-200 N65S limits assumed): as the sequence (O75015 17-200 N65S) above

binding result	Binder
no binding (tested: not given)	B1
no binding (tested: not given)	B2
no binding (tested: not given)	B3
no binding (tested: not given)	B4
no binding (tested: not given)	B5

Target: T1, human CD16A-Fc^48R/158V fusion protein
Experiment: SPR, kinetic and steady state analysis
Protocol: as §1

fold improvement of affinity over parental clone 50NI [fold]	Binder
> 20	B1

Target: T6, native CD16B on human polymorphonuclear cells (neutrophilic granulocytes) (human, UniProt O75015 17-200)
T6 construct: whole, on cells; also called PMN; CD16B-positive granulocytes
Experiment: flow cytometry on freshly isolated PMN; scFv, anti-(His)6 MAb, FITC goat anti-mouse IgG; MFI minus secondary reagents alone
Protocol: Polymorphonuclear cells (PMN) and natural killer (NK) cells were isolated from peripheral blood from a healthy donor and used for flow cytometric staining and analysis. […] All scFv were used at a concentration of 50 μg/mL and were detected with 10 μg/mL anti-(His)₆ followed by 15 μg/mL FITC-conjugated goat anti-mouse IgG. The mean fluorescence intensities obtained from flow cytometric analysis were corrected by subtracting the fluorescence values from cell stainings with the secondary reagents alone and were plotted in the diagram.
Enrichment of NK cells was performed by negative selection as described above.

T6 sequence (O75015 17-200): as the sequence (O75015 17-200 N65S) above, with S49N counted along it

binding result	Binder
no binding (tested: 50 µg/mL)	B1
no binding (tested: 50 µg/mL)	B2
no binding (tested: 50 µg/mL)	B3
no binding (tested: 50 µg/mL)	B4
no binding (tested: 50 µg/mL)	B5
